± gives the standard deviation of the averaged measurements.
B1: library; a variant is named by its letters at N, in order (parent)
chain: GCUGUCACCGAGAAACUGUGAAGUAUAUCUUAAACCUGGGCACUUAAAAGAUAUAUGGAGUUAGUAGUGCAACCUGCUCGGUCUGAUGAGUCCNNNNNNGGACGAAACAGC

Key:
[1] = variants of: B1; experiment: FACS-Seq fitted mean relative fluorescence mCherry/BFP without ligand (log10 relative fluorescence); HEK293T; ligand: cyclic di-GMP (c-di-GMP-II aptamer); higher = higher reporter protein expression; conditions: ligand present: no
Outline: (§1)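 Lentivirally transduced HEK293T libraries carried an mCherry reporter with the ribozyme switch and an EF1α-BFP marker. Transduced cells were enriched, then incubated with or without ligand for 48 h and sorted into 6 bins by mCherry/BFP. Genomic DNA from each bin was PCR-amplified, barcoded and sequenced on MiSeq. Fluorescence was the fitted normal mean of log10(mCherry/BFP) bin counts, scaled to five spiked-in control ribozymes.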

[2] = variants of: B1; experiment: normalized RNA/DNA level without ligand (relative to sTRSVctl = 100) (log10 (% of sTRSVctl)); HEK293T; ligand: cyclic di-GMP (c-di-GMP-II aptamer); higher = less ribozyme self-cleavage, higher mRNA level; conditions: reporter: mCherry (pCS4076), ligand present: no
Outline: (§2)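 Ribozyme switch library plasmids with mCherry reporters (eGFP in certain ligand experiments) went into HEK293T cells at 4 µg per 6-well well. Where ligand was used, it was applied 1 h before transfection, and total RNA was extracted with EDTA 72 h later for reverse transcription, amplification, barcoding and sequencing. RNA level is the RNA-to-DNA read ratio normalized to a spiked-in non-cleaving sequence or to the leading sequences, then scaled and log-transformed. Scaling was ×100 with log10, the leading set comprised 25 sequences, and the cutoff was ≥100 DNA reads.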

[3] = variants of: B1; experiment: FACS-Seq fitted mean relative fluorescence mCherry/BFP with ligand (log10 relative fluorescence); HEK293T; ligand: cyclic di-GMP (c-di-GMP-II aptamer); ligand concentration (+) FACS-Seq: 1 mM; higher = higher reporter protein expression; conditions: ligand present: yes
Outline: as §1

[4] = variants of: B1; experiment: normalized RNA/DNA level with ligand (relative to sTRSVctl = 100) (log10 (% of sTRSVctl)); HEK293T; ligand: cyclic di-GMP (c-di-GMP-II aptamer); ligand concentration (+) RNA-Seq: 1 mM; higher = less ribozyme self-cleavage, higher mRNA level; conditions: reporter: mCherry (pCS4076), ligand present: yes
Outline: as §2

Variant	FACS-Seq fitted mean (log10) [1]	normalized RNA/DNA level without ligand (log10) [2]	FACS-Seq fitted mean (log10) [3]	normalized RNA/DNA level with ligand (log10) [4]
GCUGUCACCGAGAAACUGUGAAGUAUAUCUUAAACCUGGGCACUUAAAAGAUAUAUGGAGUUAGUAGUGCAACCUGCUCGGUCUGAUGAGUCCCGGGGCGGACGAAACAGC [CGGGGC]	-0.104 ± 0.11	1.73 ± 0.055	0.215 ± 0.046	1.84 ± 0.14
GCUGUCACCGAGAAACUGUGAAGUAUAUCUUAAACCUGGGCACUUAAAAGAUAUAUGGAGUUAGUAGUGCAACCUGCUCGGUCUGAUGAGUCCCGGGGAGGACGAAACAGC [CGGGGA]	-0.489 ± 0.015	1.54 ± 0.11	-0.28 ± 0.044	1.64 ± 0.093
GCUGUCACCGAGAAACUGUGAAGUAUAUCUUAAACCUGGGCACUUAAAAGAUAUAUGGAGUUAGUAGUGCAACCUGCUCGGUCUGAUGAGUCCGGGGACGGACGAAACAGC [GGGGAC]	0.068 ± 0.1	1.65 ± 0.027	0.307 ± 0.041	1.8 ± 0.17
GCUGUCACCGAGAAACUGUGAAGUAUAUCUUAAACCUGGGCACUUAAAAGAUAUAUGGAGUUAGUAGUGCAACCUGCUCGGUCUGAUGAGUCCGGGGGCGGACGAAACAGC [GGGGGC]	-0.722 ± 0.011	1.77 ± 0.043	-0.503 ± 0.012	1.87 ± 0.12
GCUGUCACCGAGAAACUGUGAAGUAUAUCUUAAACCUGGGCACUUAAAAGAUAUAUGGAGUUAGUAGUGCAACCUGCUCGGUCUGAUGAGUCCCGGCGCGGACGAAACAGC [CGGCGC]	-0.498 ± 0.2	1.8 ± 0.044	-0.494 ± 0.095	1.94 ± 0.069
GCUGUCACCGAGAAACUGUGAAGUAUAUCUUAAACCUGGGCACUUAAAAGAUAUAUGGAGUUAGUAGUGCAACCUGCUCGGUCUGAUGAGUCCAGGGAGGGACGAAACAGC [AGGGAG]	-0.66 ± 0.02	1.6 ± 0.05	-0.378 ± 0.013	1.73 ± 0.084
GCUGUCACCGAGAAACUGUGAAGUAUAUCUUAAACCUGGGCACUUAAAAGAUAUAUGGAGUUAGUAGUGCAACCUGCUCGGUCUGAUGAGUCCCGGCUUGGACGAAACAGC [CGGCUU]	-0.717 ± 0.062	1.5 ± 0.099	-0.63 ± 0.15	1.67 ± 0.062
GCUGUCACCGAGAAACUGUGAAGUAUAUCUUAAACCUGGGCACUUAAAAGAUAUAUGGAGUUAGUAGUGCAACCUGCUCGGUCUGAUGAGUCCCGGCUAGGACGAAACAGC [CGGCUA]	-0.523 ± 0.084	1.33 ± 0.088	-0.355 ± 0.014	1.46 ± 0.18
GCUGUCACCGAGAAACUGUGAAGUAUAUCUUAAACCUGGGCACUUAAAAGAUAUAUGGAGUUAGUAGUGCAACCUGCUCGGUCUGAUGAGUCCUGGGAAGGACGAAACAGC [UGGGAA]	-0.259 ± 0.11	1.57 ± 0.12	-0.113 ± 0.048	1.77 ± 0.089
GCUGUCACCGAGAAACUGUGAAGUAUAUCUUAAACCUGGGCACUUAAAAGAUAUAUGGAGUUAGUAGUGCAACCUGCUCGGUCUGAUGAGUCCCGGGAAGGACGAAACAGC [CGGGAA]	-0.636 ± 0.012	1.33 ± 0.033	-0.472 ± 0.015	1.36 ± 0.081
GCUGUCACCGAGAAACUGUGAAGUAUAUCUUAAACCUGGGCACUUAAAAGAUAUAUGGAGUUAGUAGUGCAACCUGCUCGGUCUGAUGAGUCCCGGGAGGGACGAAACAGC [CGGGAG]	-0.586 ± 0.063	1.68 ± 0.017	-0.113 ± 0.0022	1.79 ± 0.064
GCUGUCACCGAGAAACUGUGAAGUAUAUCUUAAACCUGGGCACUUAAAAGAUAUAUGGAGUUAGUAGUGCAACCUGCUCGGUCUGAUGAGUCCCGGGUAGGACGAAACAGC [CGGGUA]	-0.076 ± 0.13	1.67 ± 0.023	0.207 ± 0.099	1.75 ± 0.081
GCUGUCACCGAGAAACUGUGAAGUAUAUCUUAAACCUGGGCACUUAAAAGAUAUAUGGAGUUAGUAGUGCAACCUGCUCGGUCUGAUGAGUCCAGGCUUGGACGAAACAGC [AGGCUU]	0.2 ± 0.22	1.655 ± 0.015	0.371 ± 0.029	1.85 ± 0.1
